From paper PMC9895041, “Molecular evolutionary insight of structural zinc atom in yeast xylitol dehydrogenases and its application in bioethanol production by lignocellulosic biomass” (Scientific Reports, 2023) come the findings set out here.

Series [1] deals with the molecule itself. The series is described as follows: SEC; gel filtration of the sample purified by Ni-NTA (HiLoad 16/600 Superdex 200 pg, 20 mM Tris-HCl pH 8.0, 150 mM NaCl). (In general: SEC sorts molecules by how far they enter the pores of the column.)
Substrate in series [2]: OC[C@@H](O)[C@H](O)[C@@H](O)CO
As to the kind of experiment: purified protein. The conditions noted are these: 1.5 mM NAD+, 50 mM Tris-HCl pH 8.0, 30 °C.

Substrate in series [3]: OC[C@@H](O)[C@H](O)[C@@H](O)CO
As to the kind of experiment: purified protein. Format: biochemical, Scheffersomyces stipitis. The conditions noted are these: […] NAD+, 50 mM Tris-HCl pH 8.0, 30 °C.

B1: SpXDH C97S mutant (enzyme, Schizosaccharomyces pombe, UniProt P36624 1-360, looked up)
chain: MAPAEKAFVLRKKMDTAIEDRPGQTLTDDHQVKVAIKATGICGSDVHYWKEGGIGDFILKKPMILGHESAGVVVEVGKGVSSLKPGDPVAVEPGCVSRLCDYCRSGRYNLCPHMEFAATPPYDGTLRTYYITTEDFCTKLPKQISVEEGALFEPMSVAVHAMTRGNLKCGSRVLVMGCGTVGLLMMAVAKAYGAIDIVAVDASPSRVEFAQKYVGAKPFTPIAAKENESLPDYAQRYKQAIIEKYGEFDFAVDATGVGICIHTAVLALKRGGTFVQAGNGKPVIDFPINHIINYEINVLGSFRYAHGCYKQSLFLVSNGLVDVKPLITHRFAFKDALKAYETVASGEEGVLKVIIGGPDA
notes: SPBC1773.05c protein of S. pombe (SpXDH), cloned into pQE-81L; source: E. coli DH5α, purified (Ni-NTA)
With B1, in series [1], the “stoichiometry N” value was 4. In the series “purified protein [2]” (1-10 mM xylitol), the Michaelis constant (Km) was 12.3 ± 2.3 mM, the kcat is 6.03 s⁻¹ and the kcat/Km was determined as 493 M⁻¹ s⁻¹.

B2: SpXDH C100S mutant (enzyme, Schizosaccharomyces pombe, UniProt P36624 1-360, looked up)
chain: MAPAEKAFVLRKKMDTAIEDRPGQTLTDDHQVKVAIKATGICGSDVHYWKEGGIGDFILKKPMILGHESAGVVVEVGKGVSSLKPGDPVAVEPGCVCRLSDYCRSGRYNLCPHMEFAATPPYDGTLRTYYITTEDFCTKLPKQISVEEGALFEPMSVAVHAMTRGNLKCGSRVLVMGCGTVGLLMMAVAKAYGAIDIVAVDASPSRVEFAQKYVGAKPFTPIAAKENESLPDYAQRYKQAIIEKYGEFDFAVDATGVGICIHTAVLALKRGGTFVQAGNGKPVIDFPINHIINYEINVLGSFRYAHGCYKQSLFLVSNGLVDVKPLITHRFAFKDALKAYETVASGEEGVLKVIIGGPDA
notes: as for B1
On to B2, for which, in series [1], the “stoichiometry N” value was determined as 4. In addition, in “purified protein [2]” (1-10 mM xylitol), the Km turned out to be 16.2 ± 5.0 mM, the kcat worked out at 0.202 s⁻¹ and the catalytic efficiency (kcat/Km) came out at 12.4 M⁻¹ s⁻¹.

B3: SpXDH (Schizosaccharomyces pombe 972h-; C100D) (protein)
chain: MAPAEKAFVLRKKMDTAIEDRPGQTLTDDHQVKVAIKATGICGSDVHYWKEGGIGDFILKKPMILGHESAGVVVEVGKGVSSLKPGDPVAVEPGCVCRLDDYCRSGRYNLCPHMEFAATPPYDGTLRTYYITTEDFCTKLPKQISVEEGALFEPMSVAVHAMTRGNLKCGSRVLVMGCGTVGLLMMAVAKAYGAIDIVAVDASPSRVEFAQKYVGAKPFTPIAAKENESLPDYAQRYKQAIIEKYGEFDFAVDATGVGICIHTAVLALKRGGTFVQAGNGKPVIDFPINHIINYEINVLGSFRYAHGCYKQSLFLVSNGLVDVKPLITHRFAFKDALKAYETVASGEEGVLKVIIGGPDA
For the protein B3, in “purified protein [2]” (1-10 mM xylitol), the Km came out at 8.26 ± 0.89 mM, the kcat came out at 2.17 s⁻¹ and the kcat/Km came to 263 M⁻¹ s⁻¹.

B4: SpXDH C111S mutant (enzyme, Schizosaccharomyces pombe, UniProt P36624 1-360, looked up)
chain: MAPAEKAFVLRKKMDTAIEDRPGQTLTDDHQVKVAIKATGICGSDVHYWKEGGIGDFILKKPMILGHESAGVVVEVGKGVSSLKPGDPVAVEPGCVCRLCDYCRSGRYNLSPHMEFAATPPYDGTLRTYYITTEDFCTKLPKQISVEEGALFEPMSVAVHAMTRGNLKCGSRVLVMGCGTVGLLMMAVAKAYGAIDIVAVDASPSRVEFAQKYVGAKPFTPIAAKENESLPDYAQRYKQAIIEKYGEFDFAVDATGVGICIHTAVLALKRGGTFVQAGNGKPVIDFPINHIINYEINVLGSFRYAHGCYKQSLFLVSNGLVDVKPLITHRFAFKDALKAYETVASGEEGVLKVIIGGPDA
notes: as for B1
In the case of B4, in series [1], the “stoichiometry N” value came to 4.

B5: SpXDH (Schizosaccharomyces pombe 972h-; C111D) (protein)
chain: MAPAEKAFVLRKKMDTAIEDRPGQTLTDDHQVKVAIKATGICGSDVHYWKEGGIGDFILKKPMILGHESAGVVVEVGKGVSSLKPGDPVAVEPGCVCRLCDYCRSGRYNLDPHMEFAATPPYDGTLRTYYITTEDFCTKLPKQISVEEGALFEPMSVAVHAMTRGNLKCGSRVLVMGCGTVGLLMMAVAKAYGAIDIVAVDASPSRVEFAQKYVGAKPFTPIAAKENESLPDYAQRYKQAIIEKYGEFDFAVDATGVGICIHTAVLALKRGGTFVQAGNGKPVIDFPINHIINYEINVLGSFRYAHGCYKQSLFLVSNGLVDVKPLITHRFAFKDALKAYETVASGEEGVLKVIIGGPDA
As for B5, in “purified protein [2]” (1-10 mM xylitol), the Km is on record as 9.76 ± 0.15 mM, the kcat stood at 3.6 s⁻¹ and the kcat/Km came to 368 M⁻¹ s⁻¹.

B6: SpXDH C97D mutant (enzyme, Schizosaccharomyces pombe, UniProt P36624 1-360, looked up)
chain: MAPAEKAFVLRKKMDTAIEDRPGQTLTDDHQVKVAIKATGICGSDVHYWKEGGIGDFILKKPMILGHESAGVVVEVGKGVSSLKPGDPVAVEPGCVDRLCDYCRSGRYNLCPHMEFAATPPYDGTLRTYYITTEDFCTKLPKQISVEEGALFEPMSVAVHAMTRGNLKCGSRVLVMGCGTVGLLMMAVAKAYGAIDIVAVDASPSRVEFAQKYVGAKPFTPIAAKENESLPDYAQRYKQAIIEKYGEFDFAVDATGVGICIHTAVLALKRGGTFVQAGNGKPVIDFPINHIINYEINVLGSFRYAHGCYKQSLFLVSNGLVDVKPLITHRFAFKDALKAYETVASGEEGVLKVIIGGPDA
notes: as for B1
For B6, in series [1], the “stoichiometry N” value was 4. Besides, in the series “purified protein [2]” (1-10 mM xylitol), the Km amounted to 10.4 ± 0.1 mM, the kcat was found to be 6.78 s⁻¹ and the kcat/Km was determined as 650 M⁻¹ s⁻¹.

B7: SpXDH C103S mutant (enzyme, Schizosaccharomyces pombe, UniProt P36624 1-360, looked up)
chain: MAPAEKAFVLRKKMDTAIEDRPGQTLTDDHQVKVAIKATGICGSDVHYWKEGGIGDFILKKPMILGHESAGVVVEVGKGVSSLKPGDPVAVEPGCVCRLCDYSRSGRYNLCPHMEFAATPPYDGTLRTYYITTEDFCTKLPKQISVEEGALFEPMSVAVHAMTRGNLKCGSRVLVMGCGTVGLLMMAVAKAYGAIDIVAVDASPSRVEFAQKYVGAKPFTPIAAKENESLPDYAQRYKQAIIEKYGEFDFAVDATGVGICIHTAVLALKRGGTFVQAGNGKPVIDFPINHIINYEINVLGSFRYAHGCYKQSLFLVSNGLVDVKPLITHRFAFKDALKAYETVASGEEGVLKVIIGGPDA
notes: as for B1
For B7, the “stoichiometry N” value in series [1] worked out at 4. Moreover, in “purified protein [2]” (xylitol range not marked), the Km was 9.01 ± 0.74 mM, the kcat was 2.08 s⁻¹ and the kcat/Km was 233 M⁻¹ s⁻¹.

B8: ScXDH (Saccharomyces cerevisiae S288C) (protein)
chain: MTDLTTQEAIVLERPGKITLTNVSIPKISDPNEVIIQIKATGICGSDIHYYTHGRIANYVVESPMVLGHESSGIVALIGENVKTLKVGDRVALEPGIPDRFSPEMKEGRYNLDPNLKFAATPPFDGTLTKYYKTMKDFVYKLPDDVSFEEGALIEPLSVAIHANKLAKIKFGARCVVFGAGPIGLLAGKVASVFGAADVVFVDLLENKLETARQFGATHIVNSGDLPHGVTVDSVIKKAIGKKGADVVFECSGAEPCVRAGIEVCKAGGTIVQVGMGQEEIQFPISIIPTKELTFQGCFRYCQGDYSDSIELVSSRKLSLKPFITHRYSFKDAVEAFEETSHHPLNNIKTIIEGPE
As to B8, in the series “purified protein [2]” (0.1-1 mM xylitol), the Km stood at 1.82 ± 0.42 mM, the kcat came out at 0.0182 s⁻¹ and the kcat/Km worked out at 10.1 M⁻¹ s⁻¹.

B9: ScXDH (Saccharomyces cerevisiae S288C; D113C/D99C/M105C/S102C) (protein)
chain: MTDLTTQEAIVLERPGKITLTNVSIPKISDPNEVIIQIKATGICGSDIHYYTHGRIANYVVESPMVLGHESSGIVALIGENVKTLKVGDRVALEPGIPCRFCPECKEGRYNLCPNLKFAATPPFDGTLTKYYKTMKDFVYKLPDDVSFEEGALIEPLSVAIHANKLAKIKFGARCVVFGAGPIGLLAGKVASVFGAADVVFVDLLENKLETARQFGATHIVNSGDLPHGVTVDSVIKKAIGKKGADVVFECSGAEPCVRAGIEVCKAGGTIVQVGMGQEEIQFPISIIPTKELTFQGCFRYCQGDYSDSIELVSSRKLSLKPFITHRYSFKDAVEAFEETSHHPLNNIKTIIEGPE
Take B9: in the series “purified protein [2]” (0.1-1 mM xylitol), the Km is given as 5.44 ± 0.78 mM, the kcat was found to be 0.402 s⁻¹ and the kcat/Km is 74 M⁻¹ s⁻¹.

B10: PsXDH (Scheffersomyces stipitis CBS 6054) (protein)
chain: MTANPSLVLNKIDDISFETYDAPEISEPTDVLVQVKKTGICGSDIHFYAHGRIGNFVLTKPMVLGHESAGTVVQVGKGVTSLKVGDNVAIEPGIPSRFSDEYKSGHYNLCPHMAFAATPNSKEGEPNPPGTLCKYFKSPEDFLVKLPDHVSLELGALVEPLSVGVHASKLGSVAFGDYVAVFGAGPVGLLAAAVAKTFGAKGVIVVDIFDNKLKMAKDIGAATHTFNSKTGGSEELIKAFGGNVPNVVLECTGAEPCIKLGVDAIAPGGRFVQVGNAAGPVSFPITVFAMKELTLFGSFRYGFNDYKTAVGIFDTNYQNGRENAPIDFEQLITHRYKFKDAIEAYDLVRAGKGAVKCLIDGPE
notes: full length, N-terminal His6 tag (pQE-81L), E. coli DH5alpha; homotetramer; 7Y9P is the apo C4 mutant
Take B10: in “purified protein [3]” (0.1-1 mM xylitol), the Km turned out to be 2.05 ± 0.20 mM, the kcat was found to be 0.63 ± 0.0583 s⁻¹ and the kcat/Km was found to be 307 ± 3.33 M⁻¹ s⁻¹.

B11: PsXDH (Scheffersomyces stipitis CBS 6054; S96D/S99C/Y102C) (protein)
chain: MTANPSLVLNKIDDISFETYDAPEISEPTDVLVQVKKTGICGSDIHFYAHGRIGNFVLTKPMVLGHESAGTVVQVGKGVTSLKVGDNVAIEPGIPDRFCDECKSGHYNLCPHMAFAATPNSKEGEPNPPGTLCKYFKSPEDFLVKLPDHVSLELGALVEPLSVGVHASKLGSVAFGDYVAVFGAGPVGLLAAAVAKTFGAKGVIVVDIFDNKLKMAKDIGAATHTFNSKTGGSEELIKAFGGNVPNVVLECTGAEPCIKLGVDAIAPGGRFVQVGNAAGPVSFPITVFAMKELTLFGSFRYGFNDYKTAVGIFDTNYQNGRENAPIDFEQLITHRYKFKDAIEAYDLVRAGKGAVKCLIDGPE
notes: as for B10
Consider B11, for which, in the series “purified protein [3]” (1-10 mM xylitol), the Km turned out to be 11.0 ± 1.2 mM, the kcat was found to be 9.17 ± 0.633 s⁻¹ and the kcat/Km came to 837 ± 28.3 M⁻¹ s⁻¹.

B12: PsXDH (Scheffersomyces stipitis CBS 6054; S96C/S99C/Y102C) (protein)
chain: MTANPSLVLNKIDDISFETYDAPEISEPTDVLVQVKKTGICGSDIHFYAHGRIGNFVLTKPMVLGHESAGTVVQVGKGVTSLKVGDNVAIEPGIPCRFCDECKSGHYNLCPHMAFAATPNSKEGEPNPPGTLCKYFKSPEDFLVKLPDHVSLELGALVEPLSVGVHASKLGSVAFGDYVAVFGAGPVGLLAAAVAKTFGAKGVIVVDIFDNKLKMAKDIGAATHTFNSKTGGSEELIKAFGGNVPNVVLECTGAEPCIKLGVDAIAPGGRFVQVGNAAGPVSFPITVFAMKELTLFGSFRYGFNDYKTAVGIFDTNYQNGRENAPIDFEQLITHRYKFKDAIEAYDLVRAGKGAVKCLIDGPE
notes: as for B10
In the case of B12, in “purified protein [3]” (0.1-1 mM xylitol), the Km amounted to 4.94 ± 1.62 mM, the kcat was determined as 6.4 ± 1.85 s⁻¹ and the kcat/Km worked out at 1320 ± 66.7 M⁻¹ s⁻¹.

Usually stoichiometry N stands for the number of molecules, sites or subunits per partner or assembly. The term Km denotes the concentration of substrate that gives half-maximal velocity. Usually kcat stands for the number of substrate molecules converted per active site and unit of time at saturation. Usually kcat/Km stands for the turnover number divided by the Michaelis constant.
